# Results from patent US11214595B2, “BK channel-modulating peptides and their use” (UNIVERSITY OF SOUTH FLORIDA, priority 2016, dated 2022).
# Positions of bridges follow the written chain, without caps; N, C: chain ends. Residues, ends and D or L forms follow the SMILES beside them.
# Key:
# [1] = Blood-brain barrier crossing after application to the dural surface of the auditory midbrain; settings: mouse, in vivo
# Procedure: The peptide can shuttle both itself and small molecule cargo across the blood-brain barrier of the mammalian brain. […] High dose application supports these peptides' use for suppressing audiogenic seizures, while the lower dose supports these peptides' use for reducing the effects of age-related hearing loss.
# When this compound was applied to the dura, fluorescence could be seen at ˜1200 microns in depth after 8 hours.
# [2] = target: T1, human BKα channel (ZERO isoform) (Homo sapiens, UniProt Q12791); experiment: Patch-clamp recordings of human BKα channels (ZERO isoform) expressed in HEK293 cells, inside-out patches; type: cell-based
# T1 construct: expressed in transfected cells; host or cells: HEK293
# T1 sequence (Q12791 1-1178 isoform Q12791-5): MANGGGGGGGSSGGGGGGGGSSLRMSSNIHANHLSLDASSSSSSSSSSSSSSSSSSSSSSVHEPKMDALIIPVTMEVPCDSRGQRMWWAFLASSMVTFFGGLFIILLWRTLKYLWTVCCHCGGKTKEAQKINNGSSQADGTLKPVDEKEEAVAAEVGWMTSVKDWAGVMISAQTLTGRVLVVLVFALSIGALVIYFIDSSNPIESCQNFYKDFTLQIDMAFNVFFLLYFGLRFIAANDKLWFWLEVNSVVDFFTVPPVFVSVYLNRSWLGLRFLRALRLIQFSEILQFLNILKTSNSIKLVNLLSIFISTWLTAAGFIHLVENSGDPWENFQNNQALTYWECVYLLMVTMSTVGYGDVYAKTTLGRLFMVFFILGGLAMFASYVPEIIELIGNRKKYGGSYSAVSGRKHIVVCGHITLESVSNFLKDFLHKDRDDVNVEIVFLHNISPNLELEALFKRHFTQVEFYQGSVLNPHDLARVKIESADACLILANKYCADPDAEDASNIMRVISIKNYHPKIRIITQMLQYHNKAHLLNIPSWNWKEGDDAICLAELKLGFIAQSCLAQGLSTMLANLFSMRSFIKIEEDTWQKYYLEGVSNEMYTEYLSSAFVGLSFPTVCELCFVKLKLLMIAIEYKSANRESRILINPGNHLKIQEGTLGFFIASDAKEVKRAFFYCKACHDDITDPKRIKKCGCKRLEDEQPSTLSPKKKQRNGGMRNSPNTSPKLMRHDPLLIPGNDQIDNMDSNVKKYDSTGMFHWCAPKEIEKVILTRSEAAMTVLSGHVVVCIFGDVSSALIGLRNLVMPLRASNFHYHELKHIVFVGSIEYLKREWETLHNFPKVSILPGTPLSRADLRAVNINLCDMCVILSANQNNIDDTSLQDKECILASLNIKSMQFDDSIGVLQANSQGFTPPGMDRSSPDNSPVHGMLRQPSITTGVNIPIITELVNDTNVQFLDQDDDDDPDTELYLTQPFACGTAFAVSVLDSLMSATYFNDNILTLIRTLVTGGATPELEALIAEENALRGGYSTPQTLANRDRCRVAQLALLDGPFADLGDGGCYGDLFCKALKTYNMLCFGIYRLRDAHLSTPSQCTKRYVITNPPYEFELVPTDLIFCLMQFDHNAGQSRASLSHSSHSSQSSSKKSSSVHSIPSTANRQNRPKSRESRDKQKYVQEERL
# Procedure: FIGS. 6A-6H. LS3 alters the gating of human BK channels. Human BKα channels (ZERO isoform) expressed in HEK293 cells were recorded in inside-out patches. Peptide was applied by diffusion to the extracellular side. Intracellular calcium held at 750 nM. […] FIGS. 6C-6E, Bar graphs displaying the post-peptide Po relative to the starting Po across LS3 concentrations. […] FIG. 6F-6H, Bar graphs displaying the post-peptide Po relative to the starting Po for either 500 nM LS3 (cyclic) or 500 nM of the reduced form of LS3 (linear).
# FIGS. 7A-7C. LS3 alters open and closed dwell times of the human BK channel. Single human BKα channels (ZERO isoform) expressed in HEK293 cells were recorded in inside-out patches. Intracellular calcium held at 750 nM. FIGS. 7A-7C, Bar graphs showing one example of changes in open and closed dwell times before (red) and after (black) 500 nM LS3 (100 mV). Channel open dwell times shortened (FIG. 7A).
# FIGS. 11A-11C. The 9-amino acid peptides with an N- and C-terminal disulfide bond express motifs that were highly enriched in a screen for BK channel targeted peptides (FIG. 11A). […] 60 mV shown. N=6-12. Dotted line indicates baseline (FIGS. 11B and 11C).
# FIGS. 13A-1, 13A-2, 13B, 13C-1, 13C-2, 13D-1, and 13D-2. […] Single human BKα (ZERO isoform) channels expressed in HEK293 cells were recorded in inside-out patches before and after 500 nM LS10. Intracellular calcium held at 750 nM. FIGS. 13A-1 and 13A-2: open dwell times before (FIG. 13A-1) and after (FIG. 13A-2) LS10 for a representative recording at 100 mV. Single exponential fit, red line. FIG. 13B: the mean change in peak open dwell times in response to LS10. Paired Student's t-tests compared the pre- and post-peptide peak open durations, *p<0.05, N=5-6). FIGS. 13C-1 and 13C-2: closed dwell times before (FIG. 13C-1) and after (FIG. 13C-2) LS10 for a representative recording at 100 mV. […] Three component exponential fits (gray dotted-lines) and summation (red lines) also indicated. FIGS. 13D-1 and 13D-2: the mean change in peak short (FIG. 13D-1) and long (FIG. 13D-2) duration closed dwell times in response to LS10. Paired Student's t-tests compared the pre- and post-peptide peak open durations, *p<0.05, N=6.
# (§1) HEK293 cells (ATCC, Manassas, Va.) were grown according to standard procedures. Cells were cultured at 37° C. in a 5% CO2 atmosphere in Dulbecco's modified Eagle's medium with 1-glutamine, sodium pyruvate and 10% fetal bovine serum (Invitrogen). Cell lines were split with trypsin/EDTA in Hanks' balanced salt solution (Invitrogen) up to 25-30 cycles. For phage display, stable lines stably expressed rSK2 or hBKα ZERO isoform. Cells were transfected (Lipofectamine 2000, Invitrogen) with hGlyRα1 and used 48 hours later. For electrophysiological recordings, cells were transfected with the hBKα ZERO or STREX isoform. Enhanced green fluorescent protein (EGFP) was cotransfected as a marker. Electrophysiological recordings were made 16-72 h after transfection. Although the profile of BK channel composition varies from tissue to tissue, the ZERO BK channel splice variant is widely expressed, particularly in the nervous system, serving as a representative form for studying the modulation of BK channel gating.
# Voltage-clamp recordings were performed at room temperature (22-24° C.) using an inside-out configuration on patches pulled from HEK293 cells. The extracellular solution contained the following (in mM): 2 KCl, 136 KOH, 20 Hepes, 2 MgCl2, adjusted to pH 7.2 with MeSO3H. In order to apply peptide to the extracellular surface, patch electrodes (7-20 MΩ in resistance) were tip filled with normal extracellular solution and backfilled with extracellular solution containing LS3. Enough normal extracellular solution was included to provide at least five minutes of peptide-free recording (determined by plotting Po vs. time). The intracellular solution (in the bath) contained the following (in mM): 6 KCl, 132 KOH, 20 Hepes, adjusted to pH 7.2 with MeSO3H. […]
# smooth muscle = experiment: Ex vivo preparations of bladder
# [3] = tested on: inferior colliculus neurons; settings: topical 1 μL of 10 μM stock on surface of IC, 5 hours post-application, N=5 mice
# [4] = target: T2, human BKα channel (STREX isoform) (Homo sapiens, UniProt Q12791); experiment: Patch-clamp recordings of human BKα channels (STREX isoform) expressed in HEK293 cells, inside-out patches; type: cell-based; settings: 500 nM, 100 mV, intracellular calcium 750 nM
# T2 construct: expressed in transfected cells; host or cells: HEK293
# T2 sequence (Q12791 whole entry, canonical isoform): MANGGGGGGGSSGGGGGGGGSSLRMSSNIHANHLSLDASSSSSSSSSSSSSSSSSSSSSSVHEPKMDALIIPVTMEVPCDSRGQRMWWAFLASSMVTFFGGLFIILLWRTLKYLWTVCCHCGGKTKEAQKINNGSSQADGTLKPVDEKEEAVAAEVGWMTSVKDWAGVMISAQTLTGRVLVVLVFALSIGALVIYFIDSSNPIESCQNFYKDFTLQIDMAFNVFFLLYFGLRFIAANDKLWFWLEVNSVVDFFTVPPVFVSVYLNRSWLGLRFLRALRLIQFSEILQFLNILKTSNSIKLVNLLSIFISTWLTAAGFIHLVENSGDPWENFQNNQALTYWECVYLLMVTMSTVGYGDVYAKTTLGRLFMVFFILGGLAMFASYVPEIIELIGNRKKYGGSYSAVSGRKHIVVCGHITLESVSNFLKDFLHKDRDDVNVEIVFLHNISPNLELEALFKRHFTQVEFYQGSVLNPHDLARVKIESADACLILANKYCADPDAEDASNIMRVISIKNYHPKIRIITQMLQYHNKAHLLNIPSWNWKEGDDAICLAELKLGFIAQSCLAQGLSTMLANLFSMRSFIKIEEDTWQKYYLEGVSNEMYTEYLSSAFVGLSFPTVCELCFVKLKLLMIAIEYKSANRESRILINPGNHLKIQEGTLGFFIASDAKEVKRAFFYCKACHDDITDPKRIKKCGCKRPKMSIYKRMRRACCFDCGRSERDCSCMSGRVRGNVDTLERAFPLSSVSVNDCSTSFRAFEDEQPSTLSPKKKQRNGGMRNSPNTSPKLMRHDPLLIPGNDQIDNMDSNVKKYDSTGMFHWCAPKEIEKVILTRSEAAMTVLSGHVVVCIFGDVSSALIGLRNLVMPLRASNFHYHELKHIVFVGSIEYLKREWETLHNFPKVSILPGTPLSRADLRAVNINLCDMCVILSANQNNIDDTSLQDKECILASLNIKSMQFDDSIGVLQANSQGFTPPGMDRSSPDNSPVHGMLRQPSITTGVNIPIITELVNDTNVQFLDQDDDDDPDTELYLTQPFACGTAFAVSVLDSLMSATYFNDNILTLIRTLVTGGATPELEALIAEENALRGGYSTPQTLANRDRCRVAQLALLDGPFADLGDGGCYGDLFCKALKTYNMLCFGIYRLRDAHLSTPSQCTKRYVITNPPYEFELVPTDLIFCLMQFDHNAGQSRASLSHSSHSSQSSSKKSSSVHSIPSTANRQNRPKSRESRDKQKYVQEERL
# Procedure: (§2) FIGS. 12A, 12B-1, 12B-2, 12C, 12D, and 12E. […] FIGS. 12B-1 and 12B-2: representative three second traces at 100 mV before and after LS10 (500 nM). […] BKα channels expressed in HEK293 cells were recorded in inside-out patches. Intracellular calcium held at 750 nM. […] SLO-1 channels expressed in oocytes cells were recorded in inside-out patches. Intracellular calcium held at 5 μM.
# as §1, with “Electrophysiological recordings were made 16-72 h after transfection. Although the profile of BK channel composition varies from tissue to tissue, the ZERO BK channel splice variant is widely expressed, particularly in the nervous system, serving as a representative form for studying the modulation of BK channel gating.” left out
# Voltage-clamp recordings were performed at room temperature (22-24° C.) using an inside-out configuration on patches pulled from HEK293 cells. […] Enough normal extracellular solution was included to provide at least five minutes of peptide-free recording (determined by plotting Po vs. time). […]
# worm BK channel (SLO-1) = target: T3, worm BK channel (SLO-1) (Caenorhabditis elegans, UniProt Q95V25); experiment: Inside-out patch recordings of SLO-1 channels expressed in oocytes; type: cell-based, C. elegans; settings: 100 mV, intracellular calcium 5 μM
# T3 construct: expressed in transfected cells
# T3 sequence (Q95V25 whole entry): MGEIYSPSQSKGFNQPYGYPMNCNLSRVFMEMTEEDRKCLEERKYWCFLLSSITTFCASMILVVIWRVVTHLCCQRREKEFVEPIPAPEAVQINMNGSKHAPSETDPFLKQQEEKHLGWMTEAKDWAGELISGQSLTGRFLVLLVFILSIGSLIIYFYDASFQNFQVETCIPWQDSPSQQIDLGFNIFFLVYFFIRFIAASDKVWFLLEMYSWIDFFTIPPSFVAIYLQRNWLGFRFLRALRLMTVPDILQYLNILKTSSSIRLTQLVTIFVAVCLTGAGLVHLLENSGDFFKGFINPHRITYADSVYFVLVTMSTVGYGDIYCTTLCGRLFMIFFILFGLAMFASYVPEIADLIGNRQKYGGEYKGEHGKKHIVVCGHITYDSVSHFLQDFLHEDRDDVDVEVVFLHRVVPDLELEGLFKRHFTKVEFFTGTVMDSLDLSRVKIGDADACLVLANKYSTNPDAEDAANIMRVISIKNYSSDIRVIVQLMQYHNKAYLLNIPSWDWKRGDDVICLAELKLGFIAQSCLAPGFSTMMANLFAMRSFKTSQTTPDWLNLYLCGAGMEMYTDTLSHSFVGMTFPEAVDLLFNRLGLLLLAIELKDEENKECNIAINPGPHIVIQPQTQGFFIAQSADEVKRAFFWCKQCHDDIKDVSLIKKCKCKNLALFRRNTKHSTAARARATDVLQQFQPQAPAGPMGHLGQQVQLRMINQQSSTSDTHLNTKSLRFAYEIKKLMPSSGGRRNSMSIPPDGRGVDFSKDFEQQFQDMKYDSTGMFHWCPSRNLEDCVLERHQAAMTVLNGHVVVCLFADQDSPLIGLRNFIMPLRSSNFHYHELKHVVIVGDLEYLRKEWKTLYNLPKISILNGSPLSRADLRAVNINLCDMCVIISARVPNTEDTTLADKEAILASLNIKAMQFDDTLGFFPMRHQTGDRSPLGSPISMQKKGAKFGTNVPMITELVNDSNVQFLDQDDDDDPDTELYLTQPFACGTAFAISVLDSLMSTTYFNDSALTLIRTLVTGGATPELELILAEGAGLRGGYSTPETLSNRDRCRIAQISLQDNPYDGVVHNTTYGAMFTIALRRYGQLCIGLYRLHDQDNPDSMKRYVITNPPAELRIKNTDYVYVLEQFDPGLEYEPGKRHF
# Procedure: as §2
# FIGS. 14A-1, 14A-2, and 14B. LS10 prevents the potentiation of BK channels by acute ethanol exposure. SLO-1 channels expressed in oocytes cells were recorded in inside-out patches before. Intracellular calcium held at 5 μM. FIGS. 14A-1 and 14A-2: representative three second traces at 100 mV before (upper traces) and after (lower traces) bath application of 50 mM ethanol. […] FIG. 14B: mean Po change in response to ethanol for control recordings (open bars) and in the presence of LS10 (shaded bars). Paired Student's t-tests compared the Po before and after ethanol, *p<0.05, N=5.
compound,measurement,setting,value
"CC(C)[C@@H]1NC(=O)CNC(=O)[C@H](CCCNC(=N)N)NC(=O)[C@H](C)NC(=O)[C@@H](N)CSSC[C@@H](C(=O)O)NC(=O)[C@H](C(C)C)NC(=O)[C@H](CCCNC(=N)N)NC(=O)[C@H](Cc2ccc(O)cc2)NC1=O [LS1, CARGVYRVC] (H-CARGVYRVC-OH; disulfide 1-9; N-terminus and C-terminus assumed)",crossing of the blood-brain barrier,[1],able to cross the blood-brain barrier
"CC(C)C[C@@H]1NC(=O)CNC(=O)[C@H](CCCNC(=N)N)NC(=O)[C@H](CCCNC(=N)N)NC(=O)[C@@H](N)CSSC[C@@H](C(=O)O)NC(=O)[C@H](C(C)C)NC(=O)[C@H](CCC(N)=O)NC(=O)[C@H](C(C)C)NC1=O [LS3, CRRGLVQVC] (H-CRRGLVQVC-OH; disulfide 1-9; N-terminus and C-terminus assumed)",crossing of the blood-brain barrier,[1],can cross the blood-brain barrier
same,IC50,[2]; suppression of channel openings,low hundreds
same,anti-BK channel activity in smooth muscle,smooth muscle,does not show typical anti-BK channel activity in smooth muscle
CC(C)(O)[C@H]1O[C@H]2CC[C@@]3(C)[C@@](O)(CC[C@H]4Cc5c([nH]c6ccccc56)[C@@]43C)C2=CC1=O [paxilline],reduction in sound driven activity,[3],87%
CAVGRLAVC (pskan10/LS10 peptide),open dwell times / mean open times,"[2]; 500 nM peptide, single channels, intracellular calcium 750 nM, each holding voltage",shortens open dwell times
same,closed dwell times,"[2]; 500 nM peptide, three-component exponential fits, intracellular calcium 750 nM",Half of the recordings showed a lengthening in closed times
same,mean open times,"[2]; 500 nM, 60 mV",reduce mean open times
same,change in probability of opening (Po),"[2]; 500 nM, 100 mV, intracellular calcium 750 nM",little change in the probability of opening
same,change in probability of opening (Po),[4],little change in the probability of opening
same,change in probability of opening (Po),worm BK channel (SLO-1); 500 nM,significant reduction in the probability of opening
same,potentiation of the probability of opening (Po) by ethanol,"worm BK channel (SLO-1); 50 mM ethanol, 500 nM peptide",blocked
"reduced form of LS3 (linear): the reduced form of LS3 (linear), without the disulfide bridge (CRRGLVQVC; cyclised or stapled)",post-peptide Po relative to the starting Po,"[2]; 500 nM, linear vs cyclic form",did not alter Po
